Experimental data reported in US7223556 (Harvard, dated 2007).

Assays:
[1] = target: Skp1p (Saccharomyces cerevisiae) (UniProt P52286); assay: cell-based or functional assay
[2] = target: EE-tagged HPV16-E2 (human papillomavirus type 16) (UniProt P03120); assay: cell-based or functional assay
[3] = target: retinoblastoma tumor suppressor protein (pRB) (UniProt P06400); assay: cell-based or functional assay
[4] = target: T1, retinoblastoma tumor suppressor protein (pRB) (UniProt P06400 1-928); assay: co-immunoprecipitation of in vitro translated 35S-labelled proteins with anti-Flag M2 antibody, SDS PAGE
T1 construct: For the co-immunoprecipitation it was translated in vitro and 35S-labelled; In yeast Y81 cells it was expressed from plasmid p2202TRB
T1 sequence: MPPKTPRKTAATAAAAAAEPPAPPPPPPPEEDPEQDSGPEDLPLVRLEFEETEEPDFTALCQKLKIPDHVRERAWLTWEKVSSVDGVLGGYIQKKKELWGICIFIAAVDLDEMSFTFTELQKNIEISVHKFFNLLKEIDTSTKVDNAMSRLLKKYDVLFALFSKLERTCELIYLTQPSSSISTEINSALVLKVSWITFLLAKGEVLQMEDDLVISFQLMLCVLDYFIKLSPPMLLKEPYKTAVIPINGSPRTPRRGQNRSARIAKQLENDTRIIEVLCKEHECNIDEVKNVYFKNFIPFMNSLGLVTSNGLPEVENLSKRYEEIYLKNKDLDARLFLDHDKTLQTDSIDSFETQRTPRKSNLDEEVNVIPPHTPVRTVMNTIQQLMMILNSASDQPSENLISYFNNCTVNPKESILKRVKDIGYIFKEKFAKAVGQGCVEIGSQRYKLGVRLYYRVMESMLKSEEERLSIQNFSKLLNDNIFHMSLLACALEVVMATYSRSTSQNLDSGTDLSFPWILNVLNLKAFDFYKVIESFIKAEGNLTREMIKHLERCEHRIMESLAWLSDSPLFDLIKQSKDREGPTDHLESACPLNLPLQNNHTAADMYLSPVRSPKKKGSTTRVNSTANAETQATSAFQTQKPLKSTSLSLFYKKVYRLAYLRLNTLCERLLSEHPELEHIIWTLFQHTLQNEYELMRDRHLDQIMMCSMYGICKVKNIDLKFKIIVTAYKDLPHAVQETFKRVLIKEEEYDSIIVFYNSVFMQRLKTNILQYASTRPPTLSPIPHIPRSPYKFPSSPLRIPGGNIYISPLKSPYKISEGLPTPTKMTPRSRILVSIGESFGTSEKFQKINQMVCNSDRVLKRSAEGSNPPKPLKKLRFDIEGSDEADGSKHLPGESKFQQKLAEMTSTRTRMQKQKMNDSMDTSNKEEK

Chain of Skp1p (Saccharomyces cerevisiae) (P52286 whole entry): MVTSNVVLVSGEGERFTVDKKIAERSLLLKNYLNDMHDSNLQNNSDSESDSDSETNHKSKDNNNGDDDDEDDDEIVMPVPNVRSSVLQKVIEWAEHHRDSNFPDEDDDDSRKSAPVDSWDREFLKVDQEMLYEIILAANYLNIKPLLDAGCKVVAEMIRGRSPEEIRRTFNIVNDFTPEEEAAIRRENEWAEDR
Chain of EE-tagged HPV16-E2 (human papillomavirus type 16) (P03120 whole entry): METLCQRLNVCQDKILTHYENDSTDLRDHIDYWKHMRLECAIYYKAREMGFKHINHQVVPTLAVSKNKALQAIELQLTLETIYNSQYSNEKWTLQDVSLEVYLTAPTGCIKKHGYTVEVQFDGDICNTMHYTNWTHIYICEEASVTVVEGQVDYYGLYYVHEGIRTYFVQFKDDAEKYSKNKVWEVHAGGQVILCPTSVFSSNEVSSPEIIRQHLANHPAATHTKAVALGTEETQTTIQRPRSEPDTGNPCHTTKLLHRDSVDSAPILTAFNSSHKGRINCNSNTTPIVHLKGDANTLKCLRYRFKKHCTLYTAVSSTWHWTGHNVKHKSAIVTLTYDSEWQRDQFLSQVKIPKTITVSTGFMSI

Cdc4p(G300D) (from UniProt P07834 1-779)
half life of the mutant Cdc4p protein after promoter shut-off in KY130 cells [1]: > 60 min

Cdc4p(ΔF)
half life of the mutant Cdc4p protein after promoter shut-off in KY130 cells [1]: > 60 min

Cdc4p^F/WD-E1C (from UniProt P03114 424-649)
half life of EE-E2 after promoter shut-off in INVSc1 yeast cells [2]: 16 min

Cdc4p^F/WD-E7N (from UniProt P03129 2-35)
half life of pRB after promoter shut-off in Y81 yeast cells [3]: 70 minutes

Cdc4p^F/WD-βgal (from UniProt P00722 10-1024)
half life of the βgal fusion after promoter shut-off in KY130 cells [1]: 35 min

B1: Flag-tagged βTrCP (other)
chain: MDPAEAVLQEKALKFMNSSEREDCNNGEPPRKIIPEKNSLRQTYNSCARLCLNQETVCLASTAMKTENCVAKTKLANGTSSMIVPKQRKLSASYEKEKELCVKYFEQWSESDQVEFVEHLISQMCHYQHGHINSYLKPMLQRDFITALPARGLDHIAENILSYLDAKSLCAAELVCKEWYRVTSDGMLWKKLIERMVRTDSLWRGLAERRGWGQYLFKNKPPDGNAPPNSFYRALYPKIIQDIETIESNWRCGRHSLQRIHCRSETSKGVYCLQYDDQKIVSGLRDNTIKIWDKNTLECKRILTGHTGSVLCLQYDERVIITGSSDSTVRVWDVNTGEMLNTLIHHCEAVLHLRFNNGMMVTCSKDRSIAVWDMASPTDITLRRVLVGHRAAVNVVDFDDKYIVSASGDRTIKVWNTSTCEFVRTLNGHKRGIACLQYRDRLVVSGSSDNTIRLWDIECGACLRVLEGHEELVRCIRFDNKRIVSGAYDGKIKVWDLVAALDPRAPAGTLCLRTLVEHSGRVFRLQFDEFQIVSSSHDDTILIWDFLNDPAAQAEPPRSPSRTYTYISR
notes: Untagged βTrCP in lane 1 is the control for the anti-Flag immunoprecipitation; also called F-βTrCP; F-TrCP
binding result [4]: no binding
